Source: patent US6500934
Non-standard residues stand in square brackets, D forms with d. No end group written: not given here. Ahx = NCCCCCC(=O)O; βAla = NCCC(=O)O

Assays:
[1] = target: α-MSH receptor of wild type Xenopus laevis melanophores (Xenopus laevis); assay: cell-based or functional assay
[2] = target: bombesin receptor expressed in transfected Xenopus laevis melanophores (plasmid pJG3.6BR); assay: cell-based or functional assay

B1: α-MSH dimer (disulfide-linked homodimer of …-GGG-εAhx-K(20)-C-βAla) (peptide)
peptide: SYSMEHFRWGKPVGGG[Ahx]KKKKKKKKKKKKKKKKKKKKC[βAla]
modifications: ends and bridges not checked; also: disulfide-linked homodimer via Cys
EC50 (at t=30 min.) of pigment dispersion in wild type melanophores [1]: 72.5 nM
EC50 of pigment dispersion, fold lower than α-MSH monomer [1]: 5 fold

B2: α-MSH-ANT monomer (MPdFRdWFKPV-GGGεAhx-K(20)-βAla) (peptide)
peptide: MP[dF]R[dW]FKPVGGG[Ahx]KKKKKKKKKKKKKKKKKKKK[βAla]
IC50 of inhibition of α-MSH (5 nM) mediated pigment dispersion in wild type melanophores [1]: 120 nM

B3: Bombesin dimer (disulfide-linked homodimer of C-K(20)-εAhx-GGG-…) (peptide)
peptide: CKKKKKKKKKKKKKKKKKKKK[Ahx]GGGQQRLGNQWAVGHLM-NH2
modifications: ends and bridges not checked; also: disulfide-linked homodimer via N-terminal Cys
EC50 (t=30 min) of pigment dispersion in melanophores transfected with the bombesin receptor [2]: 23.4 nM
EC50 of pigment dispersion, fold lower than bombesin monomer [2]: 5 fold
